# From the supplement of paper PMC9170038
# System: MS2 coat protein
# Experiment: apparent KD of MS2 coat protein; designed switch direction (-1 OFF switch, 1 ON switch): 1; higher = weaker reporter binding
# Summary of the method: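 Each step of the titration lasted 0.8–1.5 h at the lowest concentration and 10–20 min at the highest. The protein, SNAP-549-labelled MS2 coat protein, went from 0.7 or 1.5 nM doubling to 3 µM over RNA switches transcribed on Illumina chips by stalled E. coli RNA polymerase. Normalised cluster fluorescence was curve-fitted, and the per-design median over clusters is given as apparent KD.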
# [1] = input ligand: microRNA oligo, concentration not stated
# [2] = Eterna round: R95, input ligand: FMN 200 uM
# [3] = Eterna round: R95, input ligand: microRNA oligo, concentration not stated
# [4] = Eterna round: R95, input ligand: none
Sequence,apparent KD of MS2 coat protein (input ligand: FMN 200 uM),apparent KD of MS2 coat protein [1],apparent KD of MS2 coat protein (input ligand: none),apparent KD of MS2 coat protein [2],apparent KD of MS2 coat protein [3],apparent KD of MS2 coat protein [4]
"GAGAGACGAUUAGGAUAUCCGGUGAUAAUGAUAGGAGAAGGAAUUGACAUGAGGAUCACCCAUGUAGGAAUAAUCCAGAGAGAG [Parity 25 - Jieux - Same State NG 1] (Eterna round: R96, puzzle: Same State NG 1)",51.5 nM,28.5 nM,48.8 nM,–,–,–
"GAGCCAGUCCGAGGAUAUUACAUGAGGAUCACCCAUGUAGGCUCAGAAAAGAAAAGAGAGCCUUGGGAGAAGGCGGACUGGCUC [Xeonanisa<<9] (Eterna round: R96, puzzle: Same State NG 2)",8.19 nM,20.1 nM,39.1 nM,–,–,–
"GAGGGACAGACCAACAUGAGGAUCACCCAUGUCCUCGCAGGUCAGGAUAUCCGGCCAACAGGCAAGGAGAAGGGACGGUGAACC (Eterna round: R96, puzzle: Same State NG 3)",418 nM,344 nM,479 nM,–,–,–
GAGGGACAUGAGGAUCACCCAUGUGGAGGGAGUAAAGGAUAUUAGUGUGGGAAAGUAGGGUAAGAAGGUUGAUUGG [JR_SS1_Sub084] (puzzle: Same State 1),–,–,–,103 nM,74.9 nM,209 nM
"GAGGGCGAAAGCAACAUGAGGAUCACCCAUGUUGUCGAAAGGCAGGAUAUCCGGCGAAAGCAGAAGGAGAAGGGUCGAAAAGAA [AK SSNG3-V2-40] (Eterna round: R96, puzzle: Same State NG 3)",14.5 nM,19.7 nM,24.9 nM,–,–,–
"GAGGGCGAAAGCGACAUGAGGAUCACCCAUGUCCUCGGAGGGCAGGAUAUCCGGCAAAAGCCGAAGGAGAAGGGUCGAAAAGAA [AK SSNG3-V2-38.1] (Eterna round: R96, puzzle: Same State NG 3)",66.4 nM,26 nM,41.1 nM,–,–,–
GAGUAGGAGUUACAGGAUAUAUGGAGGAGGACAUGAGGAUCACCCAUGUGAGAGAUGAGAGGAGGAUAGAAGGGUAAGGGAGUAA [JR_SS2_Sub028] (puzzle: Same State 2),–,–,–,24 nM,20.6 nM,46.2 nM
"GAGUAGUUGAAAGGAUAUGGAUUAUUGUAGGAUCCAGAAGGUUUUAACAUGAGGAUCACCCAUGUAGGACUAUAUAUGUGAAUA [Parity 96 - Jieux - Same State NG 1] (Eterna round: R96, puzzle: Same State NG 1)",15.3 nM,10.2 nM,15.4 nM,–,–,–
"GAGUGGCAGUUAGGAUAUACAGUGAUAAUGAUAGUAGAAGGAACAGACAUGAGGAUCACCCAUGUAGGACUAAUCCAGAGAGAG [Parity 33 - Jieux - Same State NG 1] (Eterna round: R96, puzzle: Same State NG 1)",30.8 nM,29.8 nM,34.9 nM,–,–,–
"GAGUGGCAGUUAGGAUAUACAGUGAUAAUGAUAGUAGAAGGAACUGACAUGAGGAUCACCCAUGUAGGACUAAUCCAGAGAGAG [Parity 32 - Jieux - Same State NG 1] (Eterna round: R96, puzzle: Same State NG 1)",92.3 nM,21.2 nM,31.5 nM,–,–,–
"GAGUGGUGGAGAGGAUAUACAUUGAUAUUCACUGUAGAAGGUUCUAACAUGAGGAUCACCCAUGUAGGACUAUUCCUGAGAGUU [Parity 54 - Jieux - Same State NG 1] (Eterna round: R96, puzzle: Same State NG 1)",11 nM,8.99 nM,14.7 nM,–,–,–
GAGUUACUAUCUCAGGAUAUCAUGUCAAAGACAUGAGGAUCACCCAUGUACCAGGAAACUGGUUAUGAGAAGGGAGAUAGUAACA [Mat - Same State 2 - Mod - D51] (puzzle: Same State 2),–,–,–,113 nM,9.6 nM,14.4 nM
